The chains are these.
B1: LINE1-full (parent)
chain: UACGUAGGUGGUUUUCCCCUGAUAGUGCUAAGGGGGCCUGGAAGUUUGGACUGGGCAGAGCUCAACACAGCGUGGCAAAGUGGCUGUGGCUAGACUGCCUCUCUGGAUUCCUCGUCACUCAGCAGGGCAUCUCUGAGAGAAAUGCC

The variants in the data set derive from B1. The data set is described as follows: self-cleavage, relative activity (ratio to wild type); higher = more cleavage; in vitro, sequencing; the parent is a self-cleaving ribozyme.
Take U13C U87G: the self-cleavage turned out to be 0.21.
As to U13C U91A, the self-cleavage worked out at 0.85.
As for U13C U91C, the self-cleavage is 0.99.
U13G A92G: the self-cleavage worked out at 0.
For the variant U14A C99U, the self-cleavage was found to be 0.85.
For the variant U13C U112C, the self-cleavage came to 1.35.
For the variant U13C U112G, the self-cleavage came out at 1.13.
For U13A G126U, the self-cleavage came out at 1.86.
For the variant U13G G58A, the self-cleavage was found to be 0.17.
On to U13C C103A, for which the self-cleavage amounted to 1.
For the variant U13C C103U, the self-cleavage stood at 1.06.
Regarding U13C C145A, the self-cleavage was 1.6.
Regarding U13C C98U, the self-cleavage came out at 0.35.
Turning to U13C C98G, the self-cleavage is 0.15.
With U14C C99A, the self-cleavage amounted to 0.86.
For the variant U13A U85C, the self-cleavage was 0.13.
Under U14C A50U stands 1.03.
Consider U14C U47C, for which the self-cleavage was determined as 1.56.
For U13C U39C, the self-cleavage is 1.08.
U13A U132A: the self-cleavage was determined as 0.87.
For the variant U13A U132C, the self-cleavage turned out to be 0.98.
U13A U132G: the self-cleavage was found to be 0.6.
Consider U13C A124G, for which the self-cleavage is 1.04.
On to U13G G114A, for which the self-cleavage was 0.64.
Then U14C G139U, with 1.63; and U14C C19U, with 0.83; and U13C A43C, with 0.84.
In the case of U13C A43U, the self-cleavage worked out at 1.29.
On to U13C A43G, for which the self-cleavage was 0.99.
U13C G36A: the self-cleavage is 1.2.
As for U14C A92U, the self-cleavage amounted to 0.89.
Then U14C A92G, with 0.14; and U13A G48A, with 1.01; and U14A U81A, with 2.09.
Regarding U14A U81C, the self-cleavage stood at 1.1.
Then U14A U81G, with 0.8.
On to U13C U96G, for which the self-cleavage was 0.06.
Take U13A U14C: the self-cleavage was determined as 0.46.
As to U13A U14A, the self-cleavage was 1.14.
Regarding U13G, the self-cleavage stood at 0.93.
Take U13C: the self-cleavage worked out at 1.15.
Regarding U14A U109C, the self-cleavage turned out to be 1.05.
Turning to U13C C99U, the self-cleavage worked out at 0.48.
On to U13C A77G, for which the self-cleavage worked out at 1.85.
For the variant U13C A77C, the self-cleavage turned out to be 1.15.
Consider U13C A77U, for which the self-cleavage is 0.87.
Turning to U13G A129G, the self-cleavage was 1.46.
Regarding U13C A22U, the self-cleavage stood at 1.22.
Regarding U14C A22U, the self-cleavage was determined as 2.36.
On to U14C G74A, for which the self-cleavage was determined as 0.96.
As for U13A C131U, the self-cleavage stood at 1.15.
Turning to U13C G35A, the self-cleavage came to 1.13.
As for U13G A69U, the self-cleavage stood at 0.39.
Under U13C A65G stands 0.12; under U13C U23C, 0.41; under U14C A78C, 1.74.
Take U14C A78G: the self-cleavage was 1.22.
In the case of U14C C61G, the self-cleavage amounted to 0.1.
On to U14C A69G, for which the self-cleavage was determined as 0.6.
Consider U13C U143A, for which the self-cleavage worked out at 1.17.
Consider U13C A64U, for which the self-cleavage amounted to 0.44.
Turning to U13C A64C, the self-cleavage was found to be 0.45.
Then U14A U104C, with 1.69; and U14A U104A, with 1.16.
As to U14A A67U, the self-cleavage worked out at 0.1.
On to U13A U115C, for which the self-cleavage was 1.56.
Consider U13A U115G, for which the self-cleavage amounted to 1.29.
For U14C C18A, the self-cleavage is 1.24.
For U13C C90U, the self-cleavage came out at 0.04.
As to U13C A57G, the self-cleavage was determined as 0.76.
As to U13C A57U, the self-cleavage was determined as 0.12.
As to U14C G60U, the self-cleavage stood at 0.04.
As to U13A U96C, the self-cleavage amounted to 0.1.
Regarding U14C A67G, the self-cleavage was 0.61.
Turning to U14A A129G, the self-cleavage turned out to be 1.84.
Turning to U13C G25U, the self-cleavage was found to be 1.52.
On to U13C U20C, for which the self-cleavage amounted to 1.06.
Under U13C U20G stands 0.69; under U14A U132C, 1.35; under U14A A31G, 0.89.
In the case of U14A A31U, the self-cleavage turned out to be 0.84.
For the variant U13G U45C, the self-cleavage was 0.78.
As to U14C A57U, the self-cleavage was found to be 0.06.
As to U14A U29C, the self-cleavage worked out at 1.28.
For U14A U29A, the self-cleavage came to 1.51.
U13A C98G: the self-cleavage stood at 0.09.
For the variant U13G U115G, the self-cleavage was 1.43.
On to U14C A94G, for which the self-cleavage is 0.31.
In the case of U14C A94C, the self-cleavage came out at 0.09.
On to U13C G135A, for which the self-cleavage worked out at 0.75.
Under U13G A67G stands 1.9; under U13G A67U, 0.13; under U14C C38U, 1.09.
Under U13C G49A stands 0.88.
For the variant U13G U85A, the self-cleavage came out at 0.06.
In the case of U13A U62A, the self-cleavage was determined as 0.06.
U13A U62C: the self-cleavage turned out to be 0.03.
In the case of U14A U130C, the self-cleavage was found to be 0.83.
With U13A U29A, the self-cleavage was determined as 0.42.
In the case of U13G A121G, the self-cleavage turned out to be 1.1.
U14C A42G: the self-cleavage was 1.15.
U13A C128U: the self-cleavage was determined as 1.61.
Consider U13A U46A, for which the self-cleavage worked out at 1.21.
As for U13C U45G, the self-cleavage was found to be 1.46.
As to U14A A138G, the self-cleavage amounted to 1.15.
Take U14C A31U: the self-cleavage stood at 1.11.
Under U14C A31G stands 1.24; under U13C A140G, 1.23.
As to U14C C68A, the self-cleavage came to 0.09.
Then U14C C68U, with 0.32; and U13A C118U, with 0.52; and U14C G97A, with 0.09.
Under U14C C90U stands 0.01.
For U14A C103U, the self-cleavage came out at 0.99.
As for U14C G55C, the self-cleavage stood at 0.09.
Regarding U13G U132G, the self-cleavage was determined as 2.18.
As to U13G A79U, the self-cleavage worked out at 0.44.
In the case of U14C U20C, the self-cleavage amounted to 1.05.
For the variant U14C G105U, the self-cleavage was 1.11.
On to U14C G105A, for which the self-cleavage came out at 1.38.
Take U13C G55C: the self-cleavage came out at 0.25.
U14C U26A: the self-cleavage came out at 0.95.
For U13C A31U, the self-cleavage turned out to be 1.1.
Take U14A A30G: the self-cleavage was determined as 1.27.
For U14A U96C, the self-cleavage was found to be 0.04.
Under U13C G53C stands 2.02.
Then U13C G53U, with 1.11; and U13A U91C, with 0.89.
U14A C28U: the self-cleavage was found to be 0.66.
In the case of U14A U45A, the self-cleavage came out at 0.23.
With U14A U45C, the self-cleavage came out at 1.09.
For U14A U45G, the self-cleavage was found to be 0.77.
As to U14A U52C, the self-cleavage came to 0.8.
For the variant U13C U85A, the self-cleavage is 0.13.
With U14C A142G, the self-cleavage came out at 1.34.
On to U13C G122U, for which the self-cleavage is 1.02.
Turning to U13C G122A, the self-cleavage came to 1.5.
As for U14A A136C, the self-cleavage stood at 1.78.
As to U14A A136G, the self-cleavage came out at 0.97.
As for U14A A43G, the self-cleavage was determined as 0.43.
Consider U14A U46A, for which the self-cleavage is 0.86.
With U14A U46C, the self-cleavage stood at 1.17.
As to U13C U100A, the self-cleavage came to 0.7.
Under U13C U100C stands 1.4; under U13C G106A, 1.51.
Regarding U13G U100A, the self-cleavage turned out to be 0.77.
Then U13C U115C, with 1.53; and U13C U115A, with 1.3; and U13A G125U, with 1.03.
Then U13A G125A, with 0.72; and U14C U23C, with 1.4.
For the variant U14C U23A, the self-cleavage worked out at 1.62.
U14C U23G: the self-cleavage is 0.93.
Then U14C U45C, with 1.21; and U14C G34U, with 0.45; and U14C G34A, with 0.92.
For U14C C131A, the self-cleavage came to 1.15.
Take U13C G21A: the self-cleavage was found to be 0.94.
Turning to U13C G21U, the self-cleavage stood at 1.
Turning to U13G A77U, the self-cleavage is 1.31.
Regarding U13A G40A, the self-cleavage was 1.19.
In the case of U14C G36A, the self-cleavage was determined as 1.55.
For U14C G36U, the self-cleavage amounted to 1.31.
For the variant U13C U81C, the self-cleavage was determined as 1.05.
Under U13C C84U stands 0.11; under U13A G137A, 1.13; under U14C A65U, 0.19.

The values above are taken from the RNAGym collection of RNA variant scans (doi:10.7554/elife.90254).
